From patent US9803013B2, “Biological materials and uses thereof” (BioInvent International AB, priority 2005, dated 2017)

T1: mouse FcγRIV (Mus musculus, UniProt A0A0B4J1G0)
T1 construct: made in house; host or cells: HEK293E cells (transient)
T1 sequence (A0A0B4J1G0 21-249): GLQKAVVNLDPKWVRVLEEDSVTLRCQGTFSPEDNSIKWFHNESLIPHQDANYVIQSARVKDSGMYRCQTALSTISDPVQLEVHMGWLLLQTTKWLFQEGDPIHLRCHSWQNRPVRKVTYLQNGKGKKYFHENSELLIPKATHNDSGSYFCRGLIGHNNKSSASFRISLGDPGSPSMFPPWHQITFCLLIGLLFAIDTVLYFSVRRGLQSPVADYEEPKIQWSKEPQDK


Key:
[1] = tested on: endothelial cells (HUVEC, HMVEC); assay: HUVEC and HMVEC apoptosis assay; assay type: cell-based; settings: resting or IFN-γ activated HUVEC/HMVEC, antibody cross-linked or not
Experimental: (FIG. 23G) Antibody-induced endothelial cell apoptosis. HUVEC or HMVEC endothelial cells were incubated with paclitaxel (positive control), BI-505 or isotype control IgG in the presence or absence of cross-linking mAb. Apoptosis was measured by flow-cytometry following staining of cells with Annexin V-AF488.
Based on BI-505's documented ability to confer Fc:FcγR-dependent antitumor activity in malignant B cells, and a proposed general negative role for complement activation with regard to antibody tolerability (Lim et al.; van der Kolk et al., 2001), direct cytotoxic effects (PCD, ADCC, and CDC) of BI-505 in ICAM-1-expressing human peripheral blood B cells and endothelial cells were examined.
HUVEC (Cascade Biologics, pool of donors) and HMVEC (Cascade Biologics) were plated in 6-well plates (80 000-120 000 cells/well) in the presence or absence of 200 U/mL IFNγ, in order to induce ICAM-1 expression. Media was changed the day before apoptosis-induction experiments were performed and titrated concentrations of BI-505, enlimomab or isotype control antibody were added to the cells, in the presence or absence of cross-linking Fab (ab′)2 (same as the B-cell protocol). […] Necrotic cells were identified by increased fluorescence in the FL-4 channel and apoptotic cells by increased signal in the FL-1 channel on a flow cytometer (FACSCalibur, BD Bioscience).

primary patient MM cells = assay: SCID-hu mouse model of multiple myeloma; assay type: in vivo
Experimental: Bone marrow cells (>20% plasma cells) from myeloma patients (two patients in experiment 1 [top panel] and two different patients in experiment 2 [lower panel]) were injected into transplanted human fetal bones of SCID-hu mice. Four weeks after myeloma cell inoculation mice were divided into four groups to yield similar mean hIgG levels between groups, each group comprising mice grafted with MM cells from the different patient donors used in the experiment, and twice weekly treatment with 2 mg/kg BI-505, 1 mg/kg bortezomib or 2 mg/kg control human IgG was started (arrow). […] Graphs show mean hIgG concentrations.
Primary human MM cells depend on interactions with bone marrow stromal cells to proliferate and survive. The SCID-hu mouse harbors a human microenvironment where primary patient MM cells proliferate and induce pathology similar to human clinical MM (Yaccoby et al., 1998). MM cell derived human IgG titers were detected (>10 μg/ml) in the serum of SCID-hu mice four weeks after implantation of human MM cells to transplanted human bones, at which time treatment with antibodies (2 mg/kg) or bortezomib (1 mg/kg) began. Human IgG titers increased steadily in control treated SCID-hu mice over the course of experimentation to reach maximal concentrations of 40±5 μg/ml just before sacrifice (FIG. 18B and FIG. 19). […] Two independent experiments were performed with similar results (FIG. 18B and FIG. 19), each with MM cells from two different patient donors (n=4).
Human fetal femurs and tibias, obtained at 17 to 22 gestational weeks, were cut into fragments and implanted subcutaneously in SCID mice (SCID-hu) at age 6 to 8 weeks. Each animal was implanted with one bone fragment. Four weeks after bone implantation, 2 to 14×10^6 bone marrow cells from each patient (two patients per experiment for a total of four patients in two independent experiments, n=4), containing>20% plasma cells were injected directly into the human bone of 6 to 8 SCID-hu mice in a final volume of 30 to 40 μl of phosphate-buffered saline (PBS). One group of mice was implanted with bone only and served as “healthy” bone control. Mouse sera were serially monitored for human immunoglobulin (hIg) and the isotype levels were used as an indicator of myeloma cell growth by elisa. When hIg level reached 10 μg/mL or higher in 2 consecutive measurements after 4 weeks of injection of the tumor cells, the mice were divided into four groups to yield similar mean hIgG levels between groups, each group comprising mice grafted with MM cells from the different patient donors used in each experiment. The four treatment groups were: healthy control group (no myeloma cells injected and no drug treatment), isotype control group (myeloma cells injected and treated with isotype control IgG, 2 mg/kg, i.p., twice weekly), BI505 group (myeloma cells injected and treated with BI505, 2 mg/kg, i.p., twice weekly) and bortezomib group (myeloma cells injected and treated with 1 mg/kg, i.p., twice weekly). In some graphs hIgG levels were normalized to pretreatment (4 weeks) levels and the percent increase or decrease in hIgG levels as a function of treatment and time was analyzed. Normalized data from animals receiving the same treatment (control IgG, BI-505 or bortezomib) but grafted with MM cells from each of the four different patient donors in the two experiments were pooled and statistical difference was assessed by grouped 2-way ANOVA test and Bonferroni's posttest using GraphPad Prism 5 software. Patient myeloma cells were taken after informed consent and with the approval of the local ethics committee. For x-radiography evaluation and quantification of bone mineral density (BMD) mice in the four groups were sacrificed and the implanted human bones were taken out and fixed in 10% formalin solution. Radiographs were taken with an AXR Minishot-100 beryllium source instrument (Associated X-Ray Imaging Corp., Haverhill, Mass., USA) and 100 s exposure at 30 kV. […]

mouse FcγRIV = target: T1, mouse FcγRIV; assay: BiaCore analysis of BI-505 Fc-variant binding to FcγR
Experimental: (FIG. 20B) BiaCore analysis of BI-505 Fc-variant antibodies binding to mouse FcγRIV.
(§1) His-tagged human FcγRIIIa and mouse FcγRIV were transiently expressed in HEK293E cells, purified using Ni-NTA chromatography, and characterized by SDS-PAGE and/or Biacore. Surface plasmon resonance (SPR) measurements were performed using a Biacore 3000 instrument. Goat F(ab)′2 α-human-F(ab)′2 fragments (Jackson Laboratories) were immobilized with a CM-5 chip using a standard amine coupling protocol. BI-505 (IgG1) and IgG4 or IgG1 297Q variants of BI-505 were diluted to 15 and 60 μg/mL respectively and added to the surface at 10 μL/min for 3 min. His-tagged human FcγRIIIa or mouse FcγRIV was pre-incubated with an α-HIS antibody (R&D Systems) at a 2:1 molar ratio before addition to the chip surface, 30 μL/min, for 1 min. After each cycle the surface was regenerated twice with glycine buffer pH 1.7.

human FcγRIIIa = target: T2, human FcγRIIIa (Homo sapiens, UniProt P08637); assay: as above
T2 construct: made in house; host or cells: HEK293E cells (transient)
T2 sequence (P08637 17-254): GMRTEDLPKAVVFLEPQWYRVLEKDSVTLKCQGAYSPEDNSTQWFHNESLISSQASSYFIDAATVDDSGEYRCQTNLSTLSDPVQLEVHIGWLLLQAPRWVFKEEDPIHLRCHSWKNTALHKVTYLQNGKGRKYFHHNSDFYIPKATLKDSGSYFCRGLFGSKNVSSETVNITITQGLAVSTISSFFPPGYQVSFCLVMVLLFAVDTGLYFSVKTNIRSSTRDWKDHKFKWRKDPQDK
Experimental: (FIG. 20C) BiaCore analysis of BI-505 Fc-variant antibodies binding to human FcγRIIIa.
as §1

RPMI-8226 cells = assay: Macrophage ADCP; assay type: cell-based; settings: RPMI-8226, human macrophages
Experimental: (§2) Cultured macrophages were detached and plated in flat 96-well plates at 50 000 cells/well and placed in 37° C. CFSE-stained target cells were incubated with antibodies for up to 1 hr on ice. After washing, the different cell solutions were added to the culture plates containing macrophages at a ratio of 5:1 (Target cells:Macrophages). Thereafter, the culture plates were incubated at 37° C. for 1-2 hr (primary patient MM cells) or 16 hr (RPMI-8226 cells). The percentage of macrophages that had phagocytosed tumor cells (CFSE^+, CD206^+) per total analyzed macrophages was determined following gating and acquisition of 5000 CD206^+ cells/sample.
(§3) Buffy coats from healthy human donors were ordered through the local blood central at Lund University Hospital and Halmstad Hospital. Peripheral blood mononuclear cells (PBMCs) were first extracted using Ficoll-Paque PLUS (GE Healthcare Life Sciences), followed by isolation of monocytes with CD14 MicroBeads and MACS separation (Miltenyi Biotec). The monocytes were cultured in RPMI 1640 medium with 10% heat-inactivated FBS (Invitrogen) and 25 ng/mL of recombinant human M-CSF (R&D Systems) for 6-14 days, causing differentiation into macrophages. Medium with M-CSF was changed every 2-3 days upon initiation of cultures.
(§4) RPMI-8226 cells (ATCC) were continuously cultured in RPMI 1640 medium supplemented with 10 mM HEPES, 1 mM sodium pyruvate and 10% FBS. For multiple myeloma cells, freshly isolated bone marrow samples were donated by patients at Lund University Hospital and subsequently processed with Ficoll-Paque PLUS. Negative isolation of malignant plasma cells was then performed using the Plasma Cell Isolation Kit II according to the manufacturer's instructions (Miltenyi Biotec).
(§5) At least 4 h before co-culture with target cells the cultured macrophages were detached with Accutase (Sigma Aldrich), before plated in flat 96-well plates at 50 000 cells/well and placed in 37° C. […] After washing, the different cell solutions were added to the culture plates containing macrophages at a ratio of 5:1 (Target cells:Macrophages). Thereafter, the culture plates were incubated at 37° C. for 1-2 hr (primary patient MM cells) or 16 hr (RPMI-8226 cells). Next, samples were stained with APC-conjugated anti-CD206 antibody (BD Biosciences), before harvested by scraping the culture plate wells. The resulting cell solutions were then analyzed by flow cytometry, where CD206^+ macrophages were gated and acquired at 5000 cells/sample. A cut-off level identifying CFSE^+, CD206^+ double positive (phagocytic) macrophages was set for each experimental sample series. This level differed between the individual assays since the magnitude of basic (unstimulated) phagocytosis varied (different donors and time-points) among the experiments.

[2] = tested on: primary patient's MM cells; assay: Macrophage ADCP; assay type: cell-based; settings: human macrophages
Experimental: as §2, §3, §4, §5

[3] = mouse, 2 mg/kg
Experimental: Blood samples collected from the vena cava were centrifuged at 2500 g for 15 min to obtain serum and the samples were stored at −20° C.
Sera were prepared from blood samples collected from the vena saphena from 3 animals in each group at different time-points during the course of in vivo experimentation. Briefly, ELISA plates were coated over night with human ICAM-1 protein. The following day, plates were incubated with the serum samples. Biotinylated goat-anti-BI-505 was used for detection of BI-505 in the serum samples. Sera were analysed by ELISA to determine BI-505 trough levels. Trough BI-505 serum concentrations were then plotted as a function of dose and were fitted using five parameter log-log curve and XLfit software (IDBS, Guildford, United Kingdom).

ARH-77 tumors = assay: SCID/ARH-77 subcutaneous xenograft model; settings: established ARH-77 tumors
Experimental: For subcutaneous grafting, 1-5×10^6 tumor cells (RPMI-8226, NCI-H929, EJM, OPM-2, ARH-77, or Daudi) were subcutaneously injected at a volume of 100 μl into the left flank of anesthetized mice as described in the Supplemental Information. […] Treatment with saline, isotype control IgG, bortezomib, lenalidomide, dexamethasone, or BI-505 started on day 5 (RPMI-8226). Treatment with melphalan started on day 10. BI-505 or isotype IgG mAb was administered i.v. at 2 mg/kg/inj twice weekly for 8 weeks; bortezomib at 1 mg/kg/inj once weekly for 8 weeks; lenalidomide orally at 2 mg/kg/inj for 2 cycles consisting of 5 days of treatment and 2 days of wash out; melphalan i.v. at 3 mg/kg/inj once weekly for 8 weeks; and dexamethasone at 6 mg/kg/inj three times weekly for 2 weeks.
Mice were anaesthetized with a mixture of sevofluran and oxygen prior to myeloma cell inoculation and 1-10×10^6 myeloma cells were then subcutaneously injected in a volume of 100 μl into the left flank. Treatment with antibodies by intraperitoneal injection started either 1 day after cell inoculation (prophylactic model) or when tumors reached approximately 100 mm^3 (established model). Antibodies were administered in 200 μL of PBS. Treatment with PBS only or isotype IgG were used as controls. Macrophages or NK-cells were depleted by i.p. administration of 0.1 ml clodronate liposomes (Clophosome-A, FormuMax, Scientific Inc. Palo Alto, USA) or 20 μl anti-asialo GM1 pCI Ab (CL8955, Cedarlane Laboratories Limited, Canada) respectively, starting one day prior to antibody treatment, followed by administration twice weekly for a total of three weeks, PBS was used as control.
Tumor size was measured using a digital calliper and tumor volumes were calculated according to the formula width^2×length×0.52, as previously described (Cao et al., 1999).
Statistical analyses of tumor growth inhibition relative to control antibody treatment were carried out using Kruskal-Wallis nonparametric ANOVA with Dunn's multiple comparisons test or Mann-Whitney non-parametric analysis, as indicated in the figure legends.

| binding to mouse FcγRIV, order (mouse FcγRIV) | Molecule | In vivo serum concentrations [3] [µg/mL] | in vivo antitumor activity of Fc-variants, order (ARH-77 tumors) | further results |
| --- | --- | --- | --- | --- |
| – | CC(=O)O[C@H]1C(=O)[C@@]2(C)[C@H]([C@H](OC(=O)c3ccccc3)[C@]3(O)C[C@H](OC(=O)[C@H](O)[C@@H](NC(=O)c4ccccc4)c4ccccc4)C(C)=C1C3(C)C)[C@]1(OC(C)=O)CO[C@@H]1C[C@@H]2O [paclitaxel, reference compound] | – | – | cell death in normal cells [1]: induced significant PCD |
| – | CC(C)C[C@H](NC(=O)[C@H](Cc1ccccc1)NC(=O)c1cnccn1)B(O)O [bortezomib, reference compound] | – | – | bone osteoclasts (primary patient MM cells; TRAP staining, compared to control-treated mice): reduced numbers of bone osteoclasts; serum human IgG levels (primary patient MM cells; antibody 2 mg/kg or bortezomib 1 mg/kg twice weekly): halted or reduced serum human IgG levels to below pre-treatment levels |
| IgG1 N297Q<IgG4<IgG1 | BI-505 IgG1 N297Q: BI-505 variant with abolished FcγR-binding (antibody, V domains shown) VH: EVQLLESGGGLVQPGGSLRLSCAASGFTFSNAWMSWVRQAPGKGLEWVAFIWYDGSNKYYADSVKGRFTISRDNSKNTLYLQMNSLRAEDTAVYYCARYSGWYFDYWGQGTLVTVSS VL: QSVLTQPPSASGTPGQRVTISCTGSSSNIGAGYDVHWYQQLPGTAPKLLIYDNNNRPSGVPDRFSGSKSGTSASLAISGLRSEDEADYYCQSYDSSLSAWLFGGGTKLTVLG | 9.6 ± 3 | IgG1 N297Q<IgG4<IgG1 | binding to human FcγR (human FcγRIIIa): did not bind to human FcγR; ADCP (RPMI-8226 cells): did not confer ADCP; ADCP [2]: did not confer ADCP |
| IgG1 N297Q<IgG4<IgG1 | BI-505 IgG4: BI-505 variant with reduced FcγR-binding compared to wildtype BI-505 IgG1 (antibody, V domains shown) VH: EVQLLESGGGLVQPGGSLRLSCAASGFTFSNAWMSWVRQAPGKGLEWVAFIWYDGSNKYYADSVKGRFTISRDNSKNTLYLQMNSLRAEDTAVYYCARYSGWYFDYWGQGTLVTVSS VL: QSVLTQPPSASGTPGQRVTISCTGSSSNIGAGYDVHWYQQLPGTAPKLLIYDNNNRPSGVPDRFSGSKSGTSASLAISGLRSEDEADYYCQSYDSSLSAWLFGGGTKLTVLG | 13 ± 3.1 | IgG1 N297Q<IgG4<IgG1 | – |
